Molecular target: recombinant wild type echinenone-binding protein from Evechinus chloroticus (apo-rEBP) (Evechinus chloroticus)
Experiment: SEC; HiPrep 16/60 Sephacryl S-100 HR gel-permeation column, non-reducing conditions, 50 mM HEPES pH 8.0, 0.1 M NaCl, 10% v/v glycerol; final purification step; molecular weights estimated from the manufacturer's column standard curve

stoichiometry N: 2
Substance: recombinant wild type echinenone-binding protein from Evechinus chloroticus (apo-rEBP) (natural protein)
